*1 amine or outer side, *2 acyl side, *3 side chain or, on linkers, in order; H or OH if unused. Where no end group is shown, it is not given here. Side-chain parts run from the residue outwards. [ ]: non-standard residue; d: D form. The star is where a group is joined. Decanoyl(10-(4-HOOC-PhO)) = O=C(O)c1ccc(OCCCCCCCCCC(=O)*)cc1; αMePhe(2-F) = C[C@](N)(Cc1ccccc1F)C(=O)O; γGlu = O=C(O)[C@H](CCC(=O)[*:2])N[*:1]; αMeY = C[C@](N)(Cc1ccc(O)cc1)C(=O)O; αMeL = CC(C)C[C@](C)(N)C(=O)O; Nle = CCCC[C@H](N)C(=O)O; Orn = NCCC[C@H](N)C(=O)O; AEEA = NCCOCCOCC(=O)O; Aib = CC(C)(N)C(=O)O
Tests used:
Test in all cases: cell-based or functional assay
[1] = molecular target: human glucagon receptor (human) (UniProt P47871)
[2] = molecular target: human glucagon-like peptide-1 (GLP-1) receptor (human) (UniProt P43220)
[3] = molecular target: T1, human glucose-dependent insulinotropic polypeptide (GIP) receptor (human) (UniProt P48546)
T1 sequence (looked up): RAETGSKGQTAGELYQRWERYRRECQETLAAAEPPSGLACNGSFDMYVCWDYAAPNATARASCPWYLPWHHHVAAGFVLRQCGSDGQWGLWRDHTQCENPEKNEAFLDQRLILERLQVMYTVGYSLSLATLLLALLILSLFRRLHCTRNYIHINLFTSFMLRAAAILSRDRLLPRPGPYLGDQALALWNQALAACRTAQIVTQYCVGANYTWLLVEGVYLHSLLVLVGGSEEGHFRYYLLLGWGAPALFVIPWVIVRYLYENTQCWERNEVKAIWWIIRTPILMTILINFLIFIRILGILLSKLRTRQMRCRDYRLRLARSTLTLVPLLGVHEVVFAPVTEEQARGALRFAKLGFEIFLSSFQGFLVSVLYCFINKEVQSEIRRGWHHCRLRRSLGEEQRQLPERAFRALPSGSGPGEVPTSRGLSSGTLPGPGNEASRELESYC

human GIP receptor [4] = molecular target: T2, human GIP receptor (human, UniProt P48546 22-466)
T2 sequence (looked up): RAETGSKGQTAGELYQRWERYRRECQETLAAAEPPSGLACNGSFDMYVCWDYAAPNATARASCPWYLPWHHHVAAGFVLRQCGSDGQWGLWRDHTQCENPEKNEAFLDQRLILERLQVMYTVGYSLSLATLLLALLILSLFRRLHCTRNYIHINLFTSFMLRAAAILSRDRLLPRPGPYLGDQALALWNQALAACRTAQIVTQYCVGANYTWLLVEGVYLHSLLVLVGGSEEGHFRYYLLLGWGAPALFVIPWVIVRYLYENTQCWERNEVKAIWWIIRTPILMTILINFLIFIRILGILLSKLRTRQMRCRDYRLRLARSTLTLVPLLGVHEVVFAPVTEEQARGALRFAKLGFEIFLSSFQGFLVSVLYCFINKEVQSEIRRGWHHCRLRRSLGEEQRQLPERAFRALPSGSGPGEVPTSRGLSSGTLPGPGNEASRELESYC

human GLP-1 receptor [5] = molecular target: human GLP-1 receptor (human, UniProt P43220 24-463)
human glucagon receptor [6] = molecular target: human glucagon receptor (human, UniProt P47871 26-477)
human GIP receptor [7] = molecular target: T3, human GIP receptor (human, UniProt P48546 22-466); remark: listed apart in the source
T3 sequence (looked up): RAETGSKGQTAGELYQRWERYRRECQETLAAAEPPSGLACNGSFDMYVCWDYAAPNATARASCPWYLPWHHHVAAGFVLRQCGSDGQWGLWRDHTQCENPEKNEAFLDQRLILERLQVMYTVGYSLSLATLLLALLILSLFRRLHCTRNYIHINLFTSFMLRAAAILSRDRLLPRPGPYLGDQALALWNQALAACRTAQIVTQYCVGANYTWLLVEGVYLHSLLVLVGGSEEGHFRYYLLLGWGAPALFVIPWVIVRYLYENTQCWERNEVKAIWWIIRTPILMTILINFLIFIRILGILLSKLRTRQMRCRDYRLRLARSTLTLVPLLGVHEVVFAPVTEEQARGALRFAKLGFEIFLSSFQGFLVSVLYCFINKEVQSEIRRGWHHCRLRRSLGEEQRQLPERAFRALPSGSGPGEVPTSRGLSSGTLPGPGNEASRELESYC

human GLP-1 receptor [8] = molecular target: human GLP-1 receptor (human, UniProt P43220 24-463); remark: listed apart in the source
human glucagon receptor [9] = molecular target: human glucagon receptor (human, UniProt P47871 26-477); remark: listed apart in the source

Binder | cAMP EC50 [1] | cAMP EC50 [2] | cAMP Emax [2] | cAMP EC50 [3] | cAMP Emax [3] | cAMP EC50 (1.0% HSA) (human GIP receptor [4]) | cAMP Emax (1.0% HSA) (human GIP receptor [4]) | cAMP EC50 (1.0% HSA) (human GLP-1 receptor [5]) | cAMP Emax (1.0% HSA) (human GLP-1 receptor [5]) | cAMP EC50 (1.0% HSA) (human glucagon receptor [6]) | cAMP EC50 (human GIP receptor [7]) | cAMP EC50 (human GLP-1 receptor [8]) | cAMP EC50 (human glucagon receptor [9])
YXEGTXTSDYXIXLDXIAQXKFIXXLIKGGPSSGAPPPS (Y-Aib-EGT-αMeF(2F)-TSDY-Aib-I-αMeL-LD-Orn-IAQ-Aib-K((2-[2-(2-Amino-ethoxy)-ethoxy]-acetyl)2-(γ-Glu)-(10-(4-carboxyphenoxy)decanoyl))FI-(D-Glu)-αMeY-LIK((2-[2-(2-Amino-ethoxy)-ethoxy]-acetyl)2-(γ-Glu)-(10-(4-carboxyphenoxy)decanoyl))GGPSSGAPPPS-NH2) [Example 240] | > 9.95 µM | 0.508 nM | 98.5% | 0.0237 nM | 99.1% | 11.7 nM | 87.2% | 150 nM | 107% | > 9.95 µM | – | – | –
YXEGTXTSDYXIXLDXIAQXKFIXXLIEGGPSSGAPPPSK (Y-Aib-EGT-αMeF(2F)-TSDY-Aib-I-αMeL-LD-Orn-IAQ-Aib-K((2-[2-(2-Amino-ethoxy)-ethoxy]-acetyl)2-(γ-Glu)-(10-(4-carboxyphenoxy)decanoyl))FI-(D-Glu)-αMeY-LIEGGPSSGAPPPSK((2-[2-(2-Amino-ethoxy)-ethoxy]-acetyl)2-(γ-Glu)-(10-(4-carboxyphenoxy)decanoyl))-NH2) [Example 241] | > 9.95 µM | 0.362 nM | 91% | 0.0213 nM | 105% | 8.02 nM | 84.9% | 103 nM | 105% | > 9.95 µM | – | – | –
YXEGTXTSDXXIXLDXIAQXKFIXXLIEGGPSSGAPPPSK (Y-Aib-EGT-αMeF(2F)-TSD-4Pal-Aib-I-αMeL-LD-Orn-IAQ-Aib-K(2-[2-(2-Amino-ethoxy)-ethoxy]-acetyl)2-(γ-Glu)-(11-(4-carboxyphenoxy)undecanoyl)FI-(D-Glu)-αMeY-LIEGGPSSGAPPPSK((2-[2-(2-Amino-ethoxy)-ethoxy]-acetyl)2-(γ-Glu)-(11-(4-carboxyphenoxy)undecanoyl)-NH2)) [Example 242] | > 9.95 µM | 0.584 nM | 96.3% | 0.0197 nM | 100% | 11 nM | 83.9% | 214 nM | 102% | > 9.95 µM | – | – | –
YXEGTXTSDXXIXLDXKAQXKFIXXLIEGGPSSGAPPPS (Y-Aib-EGT-αMeF(2F)-TSD-4Pal-Aib-I-αMeL-LD-Orn-K((2-[2-(2-Amino-ethoxy)-ethoxy]-acetyl)2-(γ-Glu)-(10-(4-carboxyphenoxy)decanoyl))AQ-Aib-K((2-[2-(2-Amino-ethoxy)-ethoxy]-acetyl)2-(γ-Glu)-(10-(4-carboxyphenoxy)decanoyl))FI-(D-Glu)-αMeY-LIEGGPSSGAPPPS-NH2) [Example 243] | > 9.95 µM | 0.86 nM | 93.2% | 0.0154 nM | 101% | 0.728 nM | – | 34.7 nM | 114% | > 9.95 µM | – | – | –
YXEGTXTSDXXIXLDXKAQXEFIXXLIEGGPSSGAPPPSK (Y-Aib-EGT-αMeF(2F)-TSD-4Pal-Aib-I-αMeL-LD-Orn-K((2-[2-(2-Amino-ethoxy)-ethoxy]-acetyl)2-(γ-Glu)-(10-(4-carboxyphenoxy)decanoyl))AQ-Aib-EFI-(D-Glu)-αMeY-LIEGGPSSGAPPPSK((2-[2-(2-Amino-ethoxy)-ethoxy]-acetyl)2-(γ-Glu)-(10-(4-carboxyphenoxy)decanoyl))-NH2) [Example 245] | > 9.95 µM | 1.88 nM | 88.9% | 0.0195 nM | 96.7% | 0.552 nM | – | 27 nM | 93.8% | > 9.95 µM | – | – | –
YXEGTXTSDXXIXLDXIAQXKFIXXLIKGGPSSGAPPPS (Y-Aib-EGT-αMeF(2F)-TSD-4Pal-Aib-I-αMeL-LD-Orn-IAQ-Aib-K((2-[2-(2-Amino-ethoxy)-ethoxy]-acetyl)2-(γ-Glu)-(10-(4-carboxyphenoxy)decanoyl))FI-(D-Glu)-αMeY-LIK((2-[2-(2-Amino-ethoxy)-ethoxy]-acetyl)2-(γ-Glu)-(10-(4-carboxyphenoxy)decanoyl))GGPSSGAPPPS-NH2) [Example 247] | > 9.95 µM | 1 nM | 108% | 0.022 nM | 103% | 4.24 nM | 90.2% | 77.7 nM | 109% | > 9.95 µM | – | – | –
YXEGTXTSDXXIXLDXIAQXKFIXXLIEGGPSSGAPPPSK (Y-Aib-EGT-αMeF(2F)-TSD-4Pal-Aib-I-αMeL-LD-Orn-IAQ-Aib-K((2-[2-(2-Amino-ethoxy)-ethoxy]-acetyl)2-(γ-Glu)-(10-(4-carboxyphenoxy)decanoyl))FI-(D-Glu)-αMeY-LIEGGPSSGAPPPSK((2-[2-(2-Amino-ethoxy)-ethoxy]-acetyl)2-(γ-Glu)-(10-(4-carboxyphenoxy)decanoyl))-NH2) [Example 248] | > 9.95 µM | 0.537 nM | 89.1% | 0.0176 nM | 99.2% | 4.1 nM | 91.8% | 56.7 nM | 92.7% | > 9.95 µM | – | – | –
YXEGTXTSDXSIXLDXKAQXEFIXXLIEGGPSSGAPPPSK (Aib2, αMeF(2F)6, OMeY10, αMeL13, Orn16, Aib20, D-Glu24, αMeY25; K17 and K40: AEEA2-(γ-Glu)-CO-(CH2)10-CH3; C-terminal NH2) [Example 291] | – | – | – | – | – | – | – | – | – | – | 0.012 nM | 0.207 nM | > 9.95 µM
YXEGTXTSDXSIXLDXIAQXEFIKXLIKGGPSSGAPPPS (Aib2, αMeF(2F)6, hTyr10, αMeL13, Orn16, Aib20, αMeY25; K24 and K28: AEEA2-(γ-Glu)-(10-(4-carboxyphenoxy)decanoyl); C-terminal NH2) [Example 310] | – | – | – | – | – | – | – | – | – | – | 0.025 nM | 0.347 nM | > 9.95 µM
Y[Aib]EGT[αMePhe(2-F)]TSD[Nle]SI[αMeL]LD[Orn]IAQ[Aib]EFIK([AEEA-AEEA-γGlu-Decanoyl(10-(4-HOOC-PhO))])[αMeY]LIK([AEEA-AEEA-γGlu-Decanoyl(10-(4-HOOC-PhO))])GGPSSGAPPPS-NH2 [Example 314] | – | – | – | – | – | – | – | – | – | – | 0.0216 nM | 0.673 nM | > 9.95 µM
YXEGTXTSDXSIXLDXKAQXKFIXXLIEGGPSSGAPPPS (Aib2, αMeF(2F)6, hTyr10, αMeL13, Orn16, Aib20, D-Glu24, αMeY25; K17 and K21: AEEA2-(γ-Glu)-(10-(4-carboxyphenoxy)decanoyl); C-terminal NH2) [Example 320] | – | – | – | – | – | – | – | – | – | – | 0.0144 nM | 0.246 nM | > 9.95 µM

— patent US20230265151A1, “GIP/GLP1 CO-AGONIST COMPOUNDS” (priority 2020, published 2023)
